Laboratory results: patent US6660837 (KIRIN BEER, dated 2003)

Experiments:
[1] = target: RhoA^Val14CLVL^- fused to the VP16 activation domain (human, UniProt P06492 413-490; P61586 1-189); experiment: yeast two-hybrid with truncated PKN
[2] = target: T1, LexA DNA binding domain fused to PKNN1 (amino acid sequence 1-540 of PKN), pBTM/PKNN1 (human, UniProt P0A7C2 1-202 (Escherichia coli entry)); experiment: yeast two-hybrid, lacZ expression in L40 cells
T1 construct: also called LexAbd-PKN; LexA-PKNN1

[3] = target: T2, Gal4 DNA-binding domain fused to PKNN1 (amino acid sequence 1-540 of PKN), pGBT9 (human, UniProt P04386 1-147 (Saccharomyces cerevisiae entry)); experiment: yeast two-hybrid library screen, HIS3 and β-galactosidase
T2 construct: range 1-147; also called Gal4bd-PKN

[4] = target: T3, PKNN2 (N-terminal region of PKN, amino acid sequence 1-474), 35S-labeled, in vitro translated (human, UniProt Q16512 1-474, [35S]methionine label); experiment: GST pull-down of 35S-labeled in vitro translated PKNN2
T3 construct: also called in vitro translated PKN-N; PKN prepared by in vitro translation

[5] = target: catalytic subunit of bovine heart PKA (bovine, UniProt P00517 2-351); experiment: cell-based or functional assay
[6] = target: T4, PKN purified from rat testis cytosol (rat, UniProt Q63433 2-946, limits assumed); experiment: cell-based or functional assay
[7] = target: T4, PKN purified from rat testis cytosol; experiment: apparent Ki from kinase kinetics with δPKC peptide substrate; double-reciprocal plots and secondary plot of Km/Vmax

T1 sequence (P0A7C2 other isoform, or with tags, fused parts or gaps limits assumed): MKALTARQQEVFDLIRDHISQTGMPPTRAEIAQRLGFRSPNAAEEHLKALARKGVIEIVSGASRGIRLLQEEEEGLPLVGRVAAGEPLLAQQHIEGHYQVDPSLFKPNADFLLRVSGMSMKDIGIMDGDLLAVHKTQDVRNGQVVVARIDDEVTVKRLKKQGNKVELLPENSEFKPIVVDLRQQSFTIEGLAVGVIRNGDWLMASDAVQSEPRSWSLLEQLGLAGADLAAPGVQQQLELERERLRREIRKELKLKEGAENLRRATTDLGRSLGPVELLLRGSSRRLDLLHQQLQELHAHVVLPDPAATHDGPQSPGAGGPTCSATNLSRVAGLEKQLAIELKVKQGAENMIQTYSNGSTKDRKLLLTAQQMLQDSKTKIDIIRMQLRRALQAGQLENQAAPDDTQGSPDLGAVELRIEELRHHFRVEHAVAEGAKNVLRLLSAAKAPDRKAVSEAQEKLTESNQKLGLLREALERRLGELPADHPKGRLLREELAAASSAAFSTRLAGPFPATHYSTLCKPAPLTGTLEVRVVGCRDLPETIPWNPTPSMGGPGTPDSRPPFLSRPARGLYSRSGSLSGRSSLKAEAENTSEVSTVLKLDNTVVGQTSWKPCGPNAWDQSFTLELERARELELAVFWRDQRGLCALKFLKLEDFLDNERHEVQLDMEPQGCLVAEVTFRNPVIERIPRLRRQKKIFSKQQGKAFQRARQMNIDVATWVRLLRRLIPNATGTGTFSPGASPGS
T3 sequence (Q16512 1-474): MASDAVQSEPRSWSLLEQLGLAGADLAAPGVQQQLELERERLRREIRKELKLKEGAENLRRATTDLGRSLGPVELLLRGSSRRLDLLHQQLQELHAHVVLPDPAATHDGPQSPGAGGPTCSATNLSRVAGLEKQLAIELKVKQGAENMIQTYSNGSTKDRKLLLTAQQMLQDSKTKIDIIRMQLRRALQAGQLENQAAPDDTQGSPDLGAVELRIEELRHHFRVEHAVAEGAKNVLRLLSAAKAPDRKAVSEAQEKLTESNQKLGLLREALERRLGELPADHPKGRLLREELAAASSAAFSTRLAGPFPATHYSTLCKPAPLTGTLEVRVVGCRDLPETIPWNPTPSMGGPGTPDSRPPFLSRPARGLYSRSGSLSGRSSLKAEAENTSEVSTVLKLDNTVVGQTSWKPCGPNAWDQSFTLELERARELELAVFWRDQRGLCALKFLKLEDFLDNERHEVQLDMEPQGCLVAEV

B1: truncated PKN, amino acid sequence 3-135, two-hybrid fusion (other)
chain: SDAVQSEPRSWSLLEQLGLAGADLAAPGVQQQLELERERLRREIRKELKLKEGAENLRRATTDLGRSLGPVELLLRGSSRRLDLLHQQLQELHAHVVLPDPAATHDGPQSPGAGGPTCSATNLSRVAGLEKQL
notes: also called PKN 3-135
[1]
  binding result: binds

B2: VP16 transcription activation domain fused to the head-rod domain of human NFL (amino acid sequence 1-349), pVP/NFL#21 (other)
chain: MSSFSYEPYYSTSYKRRYVETPRVHISSVRSGYSTARSAYSSYSAPVSSSLSVRRSYSSSSGSLMPSLENLDLSQVAAISNDLKSIRTQEKAQLQDLNDRFASFIERVHELEQQNKVLEAELLVLRQKHSEPSRFRALYEQEIRDLRLAAEDATNEKQALQGEREGLEETLRNLQARYEEEVLSREDAEGRLMEARKGADEAALARAELEKRIDSLMDEISFLKKVHEEEIAELQAQIQYAQISVEMDVTKPDLSAALKDIRAQYEKLAAKNMQNAEEWFKSRFTVLTESAAKNTDAVRAAKDEVSESRRLLKAKTLEIEACRGMNEALEKQLQELEDKQNADISAMQD
notes: range 1-349
[2]
  binding result: binds

B3: Gal4 activation domain fusion of library clone #21 (head-rod domain of human NFL, amino acid sequence 1-349), pGAD10-NFL#21 (other, UniProt P07196 1-349, looked up, not shown: large carriers)
chain: MSSFSYEPYYSTSYKRRYVETPRVHISSVRSGYSTARSAYSSYSAPVSSSLSVRRSYSSSSGSLMPSLENLDLSQVAAISNDLKSIRTQEKAQLQDLNDRFASFIERVHELEQQNKVLEAELLVLRQKHSEPSRFRALYEQEIRDLRLAAEDATNEKQALQGEREGLEETLRNLQARYEEEVLSREDAEGRLMEARKGADEAALARAELEKRIDSLMDEISFLKKVHEEEIAELQAQIQYAQISVEMDVTKPDLSAALKDIRAQYEKLAAKNMQNAEEWFKSRFTVLTESAAKNTDAVRAAKDEVSESRRLLKAKTLEIEACRGMNEALEKQLQELEDKQNADISAMQD
notes: range 1-349; also called clone#21 protein; plasmid #21
[3]
  binding result: binds

B4: VP16 transcription activation domain fused to the head-rod domain of NFM, pVP/NFMhr (other)
chain: MSYTLDSLGNPSAYRRVTETRSSFSRVSGSPSSGFRSQSWSRGSPSTVSSSYKRSMLAPRLAYSSAMLSSAESSLDFSQSSSLLNGGSGPGGDYKLSRSNEKEQLQGLNDRFAGYIEKVHYLEQQNKEIEAEIQALRQKQASHAQLGDAYDQEIRELRATLEMVNHEKAQVQLDSDHLEEDIHRLKERFEEEARLRDDTEAAIRALRKDIEEASLVKVELDKKVQSLQDEVAFLRSNHEEEVADLLAQIQASHITVERKDYLKTDISTALKEIRSQLESHSDQNMHQAEEWFKCRYAKLTEAAEQNKEAIRSAKEEIAEYRRQLQSKSIELESVRGTKESLERQLSDIEERHNHDLSSYQDTIQQLENELRGTKWEMARHLREYQDLLNVKMALDIEIAAYRKLLEGEETR
notes: range 1-411
[2]
  binding result: binds

B5: GST-HuActSkl (604-719) (other, human, UniProt P35609 604-719, looked up)
chain: MDELRTKWDKVKQLVPIRDQSLQEELARQHANERLRRQFAAQANAIGPWIQNKMEEIARSSIQITGALEDQMNQLKQYEHNIINYKNNIDKLEGDHQLIQEALVFDNKHTNYTMEH
notes: not shown: glutathione S-transferase (GST) tag
[4]
  binding result: no binding

B6: PKN (39-53) peptide (peptide)
peptide: RERLRREIRKELKLK
[5]
  IC50 (inhibition of Kemptide phosphorylation by PKA): ≥ 1000 µM
[6]
  IC50 (inhibition of δPKC peptide phosphorylation by PKN): ~80 µM
[7]
  Ki: 41 µM

B7: GST-HuActSkl (837-894) (other, human, UniProt P35609 837-894, looked up)
chain: ILASDKPYILAEELRRELPPDQAQYCIKRMPAYSGPGSVPGALDYAAFSSALYGESDL
notes: as for B5
[4]
  binding result: no binding
